Measurements taken from publication PMC5753033.

Experiments:
WAVE1 PRD[A] (human) = WAVE1 PRD[A] (human) (UniProt Q92558); assay: AUC; sedimentation equilibrium; dye-labeled WAVE1 PRD variant with an excess of profilin (for PRD[B] 91.2, 44.8 and 21.7 μM); three speeds; 20°C; 25 mM HEPES pH 7.0, 50 mM KCl, 1 mM MgCl2, 1 mM EGTA, 0.5 mM TCEP; two-site independent model with one site fixed to the non-specific affinity
WAVE1 PRD[F] (human) = WAVE1 PRD[F] (human) (UniProt Q92558); assay: as above
WAVE1 PRD[E] (human) = WAVE1 PRD[E] (human) (UniProt Q92558); assay: as above
WAVE1 PRD[C] (human) = WAVE1 PRD[C] (human) (UniProt Q92558); assay: as above
WAVE1 PRD[B] (human) = WAVE1 PRD[B] (human) (UniProt Q92558); assay: as above
WAVE1 PRD[D] (human) = WAVE1 PRD[D] (human) (UniProt Q92558); assay: as above
[1] = target: Alexa488-labeled WAVE1 PWCA (FRET donor construct) (human) (UniProt Q92558); assay: FRET or BRET; 7.5 nM Alexa488-labeled WAVE1 variant titrated with LatB-stabilized Atto540Q-actin; donor quenching; room temperature; 20 mM HEPES pH 7.0, 100 mM KCl, 1.5 mM MgCl2, 1 mM EGTA, 1 mM ATP; single site binding curve
[2] = target: Alexa488-labeled WAVE1 WCA (human); assay: as above
[3] = target: Alexa488-labeled WAVE1 PWCA (FRET donor construct) (human) (UniProt Q92558); assay: FRET or BRET; competition: 7.5 nM Alexa488-WAVE1 variant premixed with 175 nM LatB-stabilized Atto540Q-actin, profilin titrated; room temperature; 20 mM HEPES pH 7.0, 100 mM KCl

Row | Kd (WAVE1 PRD[A] (human)) [µM] | Kd (WAVE1 PRD[F] (human)) [µM] | Kd (WAVE1 PRD[E] (human)) [µM] | Kd (WAVE1 PRD[C] (human)) [µM] | Kd (WAVE1 PRD[B] (human)) [µM] | Kd (WAVE1 PRD[D] (human)) [µM] | Substance | Kd [1] [µM] | Kd [2] [µM] | fraction of WH2 domains that contact actin at high profilin [3] [%] | residual fluorescence quenching at the highest profilin concentrations [3] [%]
1 | > 10 | 4 | > 10 | > 10 | 2 | > 10 | Human profilin 1 (from UniProt P07737 1-140) (natural protein) |  |  |  | 
2 |  |  |  |  |  |  | Atto540Q-labeled actin monomers (Acanthamoeba castellanii), Latrunculin B-stabilized (natural protein) | 0.021 | 0.061 | > 35 | > 30
